US20200199241A1 (Chugai, published 2020)

What was measured:
Assay in all cases: SPR (Biacore);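 also: antibody variants captured on sensor chip, Fcγ receptor flowed over at 25 °C, bound receptor normalized to amount of captured antibody, expressed relative to reference antibody set as 100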
human FcγRIIb = biological target: T1, human FcγRIIb (human, UniProt P31994 43-217, limits assumed)
T1 construct: also called FcgRIIb
T1 sequence: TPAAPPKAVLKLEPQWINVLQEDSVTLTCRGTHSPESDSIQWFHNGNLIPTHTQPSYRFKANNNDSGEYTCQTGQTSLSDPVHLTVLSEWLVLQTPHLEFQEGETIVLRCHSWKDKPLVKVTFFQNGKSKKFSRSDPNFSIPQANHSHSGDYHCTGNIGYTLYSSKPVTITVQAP

human FcγRIIIa(F) = biological target: T2, human FcγRIIIa(F) (human, UniProt P08637 17-208, limits assumed)
T2 construct: also called FcgRIIIaF; allotype F158
T2 sequence (P08637 other isoform, or with tags, fused parts or gaps limits assumed): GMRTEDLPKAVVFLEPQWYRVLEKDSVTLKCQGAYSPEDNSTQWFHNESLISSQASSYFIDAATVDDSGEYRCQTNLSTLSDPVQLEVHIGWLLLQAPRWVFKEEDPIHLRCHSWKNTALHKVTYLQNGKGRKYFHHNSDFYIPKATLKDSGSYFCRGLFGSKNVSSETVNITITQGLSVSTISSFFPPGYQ

human FcγRIIa(R) = biological target: T3, human FcγRIIa(R) (human, UniProt P12318 36-217)
T3 construct: also called FcgRIIaR; FcγRIIa type R
T3 chain: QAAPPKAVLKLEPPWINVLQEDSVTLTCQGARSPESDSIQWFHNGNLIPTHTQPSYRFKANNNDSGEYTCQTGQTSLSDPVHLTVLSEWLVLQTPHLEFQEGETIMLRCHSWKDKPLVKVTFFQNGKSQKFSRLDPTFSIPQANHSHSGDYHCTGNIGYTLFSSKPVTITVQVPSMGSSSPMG

human FcγRIa = biological target: T4, human FcγRIa (human, UniProt P12314 16-292, limits assumed)
T4 construct: also called FcgRIa; FcγRI (CD64)
T4 sequence (P12314 16-292 limits assumed): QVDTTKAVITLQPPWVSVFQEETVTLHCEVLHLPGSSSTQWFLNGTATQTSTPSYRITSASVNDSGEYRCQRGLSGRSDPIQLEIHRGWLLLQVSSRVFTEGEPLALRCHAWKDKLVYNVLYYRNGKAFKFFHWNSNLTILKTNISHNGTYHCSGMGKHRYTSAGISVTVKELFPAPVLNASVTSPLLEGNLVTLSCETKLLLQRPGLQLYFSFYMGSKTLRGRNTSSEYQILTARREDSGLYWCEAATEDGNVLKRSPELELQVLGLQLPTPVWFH

human FcγRIIa(H) = biological target: T5, human FcγRIIa(H) (human, UniProt P12318 36-217)
T5 construct: also called FcgRIIaH; FcγRIIa type H
T5 sequence: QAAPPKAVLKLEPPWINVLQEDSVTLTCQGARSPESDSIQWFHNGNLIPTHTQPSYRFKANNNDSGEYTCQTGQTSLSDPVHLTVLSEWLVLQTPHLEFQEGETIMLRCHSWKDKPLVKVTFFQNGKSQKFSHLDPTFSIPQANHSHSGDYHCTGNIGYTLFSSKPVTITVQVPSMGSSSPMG

B1: GpH7-B3 variant L235A/GpL16-k0 (antibody, human IgG1)
heavy: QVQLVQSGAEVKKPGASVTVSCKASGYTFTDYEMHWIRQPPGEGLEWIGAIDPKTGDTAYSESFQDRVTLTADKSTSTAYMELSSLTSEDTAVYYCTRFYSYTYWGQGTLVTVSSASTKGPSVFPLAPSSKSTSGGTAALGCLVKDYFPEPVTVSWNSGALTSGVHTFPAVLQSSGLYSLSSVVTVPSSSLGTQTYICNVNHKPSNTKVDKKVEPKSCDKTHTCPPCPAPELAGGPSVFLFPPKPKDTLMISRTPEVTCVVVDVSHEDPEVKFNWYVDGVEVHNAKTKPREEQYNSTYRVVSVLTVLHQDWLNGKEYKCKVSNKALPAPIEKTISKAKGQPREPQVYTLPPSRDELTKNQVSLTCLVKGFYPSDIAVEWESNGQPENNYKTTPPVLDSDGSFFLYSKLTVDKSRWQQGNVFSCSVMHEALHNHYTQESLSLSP
light: DIVMTQSPLSLPVTPGEPASISCQASESLVHSNRNTYLHWYLQKPGQSPQLLIYKVSNRFSGVPDRFSGSGSGTDFTLKISRVEAEDVGVYYCSQNTHVPPTFGQGTKVEIE
notes: copies: 2 + 2
relative binding activity (human FcγRIIb): 37 % of GpH7-B3/GpL16-k0 | relative binding activity (human FcγRIIIa(F)): 49 % of GpH7-B3/GpL16-k0 | relative binding activity (human FcγRIIa(R)): 50 % of GpH7-B3/GpL16-k0 | relative binding activity (human FcγRIa): 66 % of GpH7-B3/GpL16-k0 | relative binding activity (human FcγRIIa(H)): 48 % of GpH7-B3/GpL16-k0

B2: GpH7-B3 variant L235D/GpL16-k0 (antibody, human IgG1)
heavy: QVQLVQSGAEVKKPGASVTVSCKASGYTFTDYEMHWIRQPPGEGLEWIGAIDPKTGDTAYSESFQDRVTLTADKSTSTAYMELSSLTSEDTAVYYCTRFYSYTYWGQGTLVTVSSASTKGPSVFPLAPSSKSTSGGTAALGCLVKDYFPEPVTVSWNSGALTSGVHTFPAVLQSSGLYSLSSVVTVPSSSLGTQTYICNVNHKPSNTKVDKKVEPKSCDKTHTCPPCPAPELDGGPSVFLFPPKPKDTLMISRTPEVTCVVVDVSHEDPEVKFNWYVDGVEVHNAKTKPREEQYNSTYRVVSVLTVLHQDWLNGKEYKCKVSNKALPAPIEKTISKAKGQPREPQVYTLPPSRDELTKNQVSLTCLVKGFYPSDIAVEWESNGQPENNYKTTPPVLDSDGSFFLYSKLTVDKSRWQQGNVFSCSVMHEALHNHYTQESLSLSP
light: DIVMTQSPLSLPVTPGEPASISCQASESLVHSNRNTYLHWYLQKPGQSPQLLIYKVSNRFSGVPDRFSGSGSGTDFTLKISRVEAEDVGVYYCSQNTHVPPTFGQGTKVEIE
notes: copies: 2 + 2
relative binding activity (human FcγRIIb): 88 % of GpH7-B3/GpL16-k0 | relative binding activity (human FcγRIIIa(F)): 60 % of GpH7-B3/GpL16-k0 | relative binding activity (human FcγRIIa(R)): 87 % of GpH7-B3/GpL16-k0 | relative binding activity (human FcγRIa): 1 % of GpH7-B3/GpL16-k0 | relative binding activity (human FcγRIIa(H)): 60 % of GpH7-B3/GpL16-k0

B3: GpH7-B3 variant L235E/GpL16-k0 (antibody, human IgG1)
heavy: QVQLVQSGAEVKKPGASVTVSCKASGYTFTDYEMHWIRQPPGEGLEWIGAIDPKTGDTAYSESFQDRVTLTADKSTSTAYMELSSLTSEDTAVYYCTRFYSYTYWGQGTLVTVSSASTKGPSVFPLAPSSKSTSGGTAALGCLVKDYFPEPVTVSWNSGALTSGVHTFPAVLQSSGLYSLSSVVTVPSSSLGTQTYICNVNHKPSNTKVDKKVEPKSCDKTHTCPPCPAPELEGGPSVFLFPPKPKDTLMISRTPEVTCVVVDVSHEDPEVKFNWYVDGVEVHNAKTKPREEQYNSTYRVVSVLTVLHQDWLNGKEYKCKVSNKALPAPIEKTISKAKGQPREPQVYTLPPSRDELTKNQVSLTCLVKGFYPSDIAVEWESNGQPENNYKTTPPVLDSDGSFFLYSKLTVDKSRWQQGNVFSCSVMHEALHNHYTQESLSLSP
light: DIVMTQSPLSLPVTPGEPASISCQASESLVHSNRNTYLHWYLQKPGQSPQLLIYKVSNRFSGVPDRFSGSGSGTDFTLKISRVEAEDVGVYYCSQNTHVPPTFGQGTKVEIE
notes: copies: 2 + 2
relative binding activity (human FcγRIIb): 64 % of GpH7-B3/GpL16-k0 | relative binding activity (human FcγRIIIa(F)): 56 % of GpH7-B3/GpL16-k0 | relative binding activity (human FcγRIIa(R)): 72 % of GpH7-B3/GpL16-k0 | relative binding activity (human FcγRIa): 15 % of GpH7-B3/GpL16-k0 | relative binding activity (human FcγRIIa(H)): 52 % of GpH7-B3/GpL16-k0

B4: GpH7-B3 variant L235G/GpL16-k0 (antibody, human IgG1)
heavy: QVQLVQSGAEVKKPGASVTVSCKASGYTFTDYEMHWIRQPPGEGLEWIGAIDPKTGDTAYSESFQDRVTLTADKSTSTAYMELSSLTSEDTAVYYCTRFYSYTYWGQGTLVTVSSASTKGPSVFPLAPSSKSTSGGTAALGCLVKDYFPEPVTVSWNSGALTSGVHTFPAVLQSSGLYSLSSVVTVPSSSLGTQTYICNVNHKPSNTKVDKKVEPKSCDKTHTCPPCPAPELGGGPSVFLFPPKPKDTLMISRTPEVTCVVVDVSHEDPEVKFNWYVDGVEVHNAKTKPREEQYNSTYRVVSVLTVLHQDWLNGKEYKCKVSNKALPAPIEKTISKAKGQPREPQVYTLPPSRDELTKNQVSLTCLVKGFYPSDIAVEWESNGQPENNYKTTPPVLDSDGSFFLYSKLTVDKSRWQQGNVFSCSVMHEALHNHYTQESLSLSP
light: DIVMTQSPLSLPVTPGEPASISCQASESLVHSNRNTYLHWYLQKPGQSPQLLIYKVSNRFSGVPDRFSGSGSGTDFTLKISRVEAEDVGVYYCSQNTHVPPTFGQGTKVEIE
notes: copies: 2 + 2
relative binding activity (human FcγRIIb): 3 % of GpH7-B3/GpL16-k0 | relative binding activity (human FcγRIIIa(F)): 13 % of GpH7-B3/GpL16-k0 | relative binding activity (human FcγRIIa(R)): 6 % of GpH7-B3/GpL16-k0 | relative binding activity (human FcγRIa): 16 % of GpH7-B3/GpL16-k0 | relative binding activity (human FcγRIIa(H)): 7 % of GpH7-B3/GpL16-k0

B5: GpH7-B3 variant L235H/GpL16-k0 (antibody, human IgG1)
heavy: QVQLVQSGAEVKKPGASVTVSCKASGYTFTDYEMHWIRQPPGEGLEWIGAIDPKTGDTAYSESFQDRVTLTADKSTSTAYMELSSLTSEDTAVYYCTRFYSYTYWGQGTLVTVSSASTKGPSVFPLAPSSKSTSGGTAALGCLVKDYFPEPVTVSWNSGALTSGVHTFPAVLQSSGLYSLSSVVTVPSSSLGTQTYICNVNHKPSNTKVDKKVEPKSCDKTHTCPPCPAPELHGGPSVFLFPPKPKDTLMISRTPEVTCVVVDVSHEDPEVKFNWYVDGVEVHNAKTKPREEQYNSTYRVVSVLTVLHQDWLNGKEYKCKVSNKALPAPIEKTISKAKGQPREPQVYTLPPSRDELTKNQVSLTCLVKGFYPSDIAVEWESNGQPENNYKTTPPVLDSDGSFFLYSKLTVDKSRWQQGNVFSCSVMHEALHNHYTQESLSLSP
light: DIVMTQSPLSLPVTPGEPASISCQASESLVHSNRNTYLHWYLQKPGQSPQLLIYKVSNRFSGVPDRFSGSGSGTDFTLKISRVEAEDVGVYYCSQNTHVPPTFGQGTKVEIE
notes: copies: 2 + 2
relative binding activity (human FcγRIIb): 66 % of GpH7-B3/GpL16-k0 | relative binding activity (human FcγRIIIa(F)): 28 % of GpH7-B3/GpL16-k0 | relative binding activity (human FcγRIIa(R)): 91 % of GpH7-B3/GpL16-k0 | relative binding activity (human FcγRIa): 2 % of GpH7-B3/GpL16-k0 | relative binding activity (human FcγRIIa(H)): 88 % of GpH7-B3/GpL16-k0

B6: GpH7-B3 variant L235I/GpL16-k0 (antibody, human IgG1)
heavy: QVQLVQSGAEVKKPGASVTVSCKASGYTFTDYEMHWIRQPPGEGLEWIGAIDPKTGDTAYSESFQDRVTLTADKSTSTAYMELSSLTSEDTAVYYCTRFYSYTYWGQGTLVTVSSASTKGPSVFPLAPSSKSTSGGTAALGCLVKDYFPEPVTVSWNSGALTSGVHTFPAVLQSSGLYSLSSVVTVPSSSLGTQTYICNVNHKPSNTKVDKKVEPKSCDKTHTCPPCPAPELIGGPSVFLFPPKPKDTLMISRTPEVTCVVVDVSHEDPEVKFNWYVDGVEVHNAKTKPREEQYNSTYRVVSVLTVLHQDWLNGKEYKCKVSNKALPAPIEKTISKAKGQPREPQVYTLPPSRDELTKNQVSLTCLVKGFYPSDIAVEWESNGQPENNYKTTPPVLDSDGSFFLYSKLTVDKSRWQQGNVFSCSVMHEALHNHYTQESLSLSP
light: DIVMTQSPLSLPVTPGEPASISCQASESLVHSNRNTYLHWYLQKPGQSPQLLIYKVSNRFSGVPDRFSGSGSGTDFTLKISRVEAEDVGVYYCSQNTHVPPTFGQGTKVEIE
notes: copies: 2 + 2
relative binding activity (human FcγRIIb): 88 % of GpH7-B3/GpL16-k0 | relative binding activity (human FcγRIIIa(F)): 85 % of GpH7-B3/GpL16-k0 | relative binding activity (human FcγRIIa(R)): 81 % of GpH7-B3/GpL16-k0 | relative binding activity (human FcγRIa): 93 % of GpH7-B3/GpL16-k0 | relative binding activity (human FcγRIIa(H)): 89 % of GpH7-B3/GpL16-k0

B7: GpH7-B3 variant L235K/GpL16-k0 (antibody, human IgG1)
heavy: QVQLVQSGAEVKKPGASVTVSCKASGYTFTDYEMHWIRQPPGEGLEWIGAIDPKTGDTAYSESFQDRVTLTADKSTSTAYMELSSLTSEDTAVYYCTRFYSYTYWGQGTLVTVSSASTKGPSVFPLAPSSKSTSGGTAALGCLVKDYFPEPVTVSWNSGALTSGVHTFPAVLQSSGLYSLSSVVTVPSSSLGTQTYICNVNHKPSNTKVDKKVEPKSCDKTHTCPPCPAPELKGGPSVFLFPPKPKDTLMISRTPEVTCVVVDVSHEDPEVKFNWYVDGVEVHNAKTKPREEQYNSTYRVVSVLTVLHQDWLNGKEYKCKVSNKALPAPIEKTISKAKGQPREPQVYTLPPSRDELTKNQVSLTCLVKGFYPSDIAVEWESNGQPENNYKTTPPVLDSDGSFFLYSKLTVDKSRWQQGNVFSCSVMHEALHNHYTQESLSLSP
light: DIVMTQSPLSLPVTPGEPASISCQASESLVHSNRNTYLHWYLQKPGQSPQLLIYKVSNRFSGVPDRFSGSGSGTDFTLKISRVEAEDVGVYYCSQNTHVPPTFGQGTKVEIE
notes: copies: 2 + 2
relative binding activity (human FcγRIIb): -3 % of GpH7-B3/GpL16-k0 | relative binding activity (human FcγRIIIa(F)): 6 % of GpH7-B3/GpL16-k0 | relative binding activity (human FcγRIIa(R)): -5 % of GpH7-B3/GpL16-k0 | relative binding activity (human FcγRIa): -1 % of GpH7-B3/GpL16-k0 | relative binding activity (human FcγRIIa(H)): 0 % of GpH7-B3/GpL16-k0

B8: GpH7-B3 variant L235M/GpL16-k0 (antibody, human IgG1)
heavy: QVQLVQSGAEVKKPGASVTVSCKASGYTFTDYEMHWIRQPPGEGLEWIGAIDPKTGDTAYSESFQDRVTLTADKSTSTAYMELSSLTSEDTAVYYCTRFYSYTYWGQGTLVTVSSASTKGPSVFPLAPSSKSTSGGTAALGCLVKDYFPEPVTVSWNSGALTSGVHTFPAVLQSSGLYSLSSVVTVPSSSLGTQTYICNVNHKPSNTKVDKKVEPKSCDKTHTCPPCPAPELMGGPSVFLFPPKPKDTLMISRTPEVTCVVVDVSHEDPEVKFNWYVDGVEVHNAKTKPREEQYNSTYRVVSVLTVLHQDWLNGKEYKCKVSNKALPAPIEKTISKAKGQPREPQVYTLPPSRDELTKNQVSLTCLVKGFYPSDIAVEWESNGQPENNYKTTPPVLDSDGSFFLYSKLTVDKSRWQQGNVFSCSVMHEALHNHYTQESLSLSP
light: DIVMTQSPLSLPVTPGEPASISCQASESLVHSNRNTYLHWYLQKPGQSPQLLIYKVSNRFSGVPDRFSGSGSGTDFTLKISRVEAEDVGVYYCSQNTHVPPTFGQGTKVEIE
notes: copies: 2 + 2
relative binding activity (human FcγRIIb): 63 % of GpH7-B3/GpL16-k0 | relative binding activity (human FcγRIIIa(F)): 42 % of GpH7-B3/GpL16-k0 | relative binding activity (human FcγRIIa(R)): 72 % of GpH7-B3/GpL16-k0 | relative binding activity (human FcγRIa): 93 % of GpH7-B3/GpL16-k0 | relative binding activity (human FcγRIIa(H)): 72 % of GpH7-B3/GpL16-k0

B9: GpH7-B3 variant L235N/GpL16-k0 (antibody, human IgG1)
heavy: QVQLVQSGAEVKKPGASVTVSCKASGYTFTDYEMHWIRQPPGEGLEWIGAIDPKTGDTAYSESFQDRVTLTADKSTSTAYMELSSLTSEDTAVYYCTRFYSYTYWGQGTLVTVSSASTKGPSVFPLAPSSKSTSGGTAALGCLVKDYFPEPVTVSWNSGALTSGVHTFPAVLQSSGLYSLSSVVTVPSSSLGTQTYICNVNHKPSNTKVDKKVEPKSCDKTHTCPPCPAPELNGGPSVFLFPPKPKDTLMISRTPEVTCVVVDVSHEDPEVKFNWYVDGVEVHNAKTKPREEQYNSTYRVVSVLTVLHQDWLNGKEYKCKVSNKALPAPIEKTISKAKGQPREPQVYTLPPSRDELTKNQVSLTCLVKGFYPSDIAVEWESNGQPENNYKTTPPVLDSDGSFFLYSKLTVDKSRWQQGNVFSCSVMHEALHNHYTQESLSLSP
light: DIVMTQSPLSLPVTPGEPASISCQASESLVHSNRNTYLHWYLQKPGQSPQLLIYKVSNRFSGVPDRFSGSGSGTDFTLKISRVEAEDVGVYYCSQNTHVPPTFGQGTKVEIE
notes: copies: 2 + 2
relative binding activity (human FcγRIIb): 27 % of GpH7-B3/GpL16-k0 | relative binding activity (human FcγRIIIa(F)): 35 % of GpH7-B3/GpL16-k0 | relative binding activity (human FcγRIIa(R)): 35 % of GpH7-B3/GpL16-k0 | relative binding activity (human FcγRIa): 3 % of GpH7-B3/GpL16-k0 | relative binding activity (human FcγRIIa(H)): 37 % of GpH7-B3/GpL16-k0

B10: GpH7-B3 variant L235P/GpL16-k0 (antibody, human IgG1)
heavy: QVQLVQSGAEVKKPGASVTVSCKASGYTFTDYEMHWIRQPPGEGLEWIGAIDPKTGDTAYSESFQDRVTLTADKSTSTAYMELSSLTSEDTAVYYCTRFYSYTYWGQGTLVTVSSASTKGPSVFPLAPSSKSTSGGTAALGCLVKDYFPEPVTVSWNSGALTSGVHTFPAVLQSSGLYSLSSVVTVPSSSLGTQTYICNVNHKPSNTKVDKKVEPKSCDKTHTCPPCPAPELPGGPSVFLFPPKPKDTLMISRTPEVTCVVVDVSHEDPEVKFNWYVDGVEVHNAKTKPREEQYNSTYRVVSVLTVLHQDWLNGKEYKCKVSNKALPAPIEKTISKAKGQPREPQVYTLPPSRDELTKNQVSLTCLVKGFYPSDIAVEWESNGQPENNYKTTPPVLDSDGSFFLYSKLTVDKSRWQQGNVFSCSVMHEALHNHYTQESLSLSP
light: DIVMTQSPLSLPVTPGEPASISCQASESLVHSNRNTYLHWYLQKPGQSPQLLIYKVSNRFSGVPDRFSGSGSGTDFTLKISRVEAEDVGVYYCSQNTHVPPTFGQGTKVEIE
notes: copies: 2 + 2
relative binding activity (human FcγRIIb): 32 % of GpH7-B3/GpL16-k0 | relative binding activity (human FcγRIIIa(F)): 47 % of GpH7-B3/GpL16-k0 | relative binding activity (human FcγRIIa(R)): 38 % of GpH7-B3/GpL16-k0 | relative binding activity (human FcγRIa): 3 % of GpH7-B3/GpL16-k0 | relative binding activity (human FcγRIIa(H)): 33 % of GpH7-B3/GpL16-k0
